Experimental data from article PMC11741350.

Tests used:
[1] = molecular target: HA-RNF25 mutant lacking the Proline-Rich domain (human); assay: co-IP
[2] = molecular target: HA-RNF25 mutant lacking the RING+L+U5BR domains (human); assay: co-IP

Chain of REV7 (Q9UI95 whole entry): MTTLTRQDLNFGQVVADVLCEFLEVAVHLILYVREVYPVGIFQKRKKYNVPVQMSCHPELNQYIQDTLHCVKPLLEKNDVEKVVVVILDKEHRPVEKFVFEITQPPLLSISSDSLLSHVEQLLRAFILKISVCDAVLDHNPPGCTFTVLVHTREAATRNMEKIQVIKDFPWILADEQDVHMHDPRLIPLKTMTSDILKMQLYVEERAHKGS

REV7 (from UniProt Q9UI95 1-211) (natural protein)
fold reduction of co-precipitated REV7 against wild-type HA-RNF25 [1]: 3.13 fold | fold reduction of co-precipitated REV7 against wild-type HA-RNF25 [2]: 2.33 fold
